From paper PMC9482650, “Quantitative fragmentomics allow affinity mapping of interactomes” (Nature Communications, 2022)
Changes are numbered by the printed parent chain.

T1: APBA2_2, Q99767
T1 sequence (Q99767 654-744, limits assumed, looked up): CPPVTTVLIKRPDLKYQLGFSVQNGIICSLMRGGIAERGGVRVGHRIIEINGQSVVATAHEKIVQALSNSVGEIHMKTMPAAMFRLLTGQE

T2: GRIP1_4, Q9Y3R0
T2 sequence (Q9Y3R0 467-571, limits assumed, looked up): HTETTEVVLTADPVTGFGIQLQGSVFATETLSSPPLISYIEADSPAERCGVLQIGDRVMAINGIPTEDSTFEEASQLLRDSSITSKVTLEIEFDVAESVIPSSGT

T3: MPP2, Q14168
T3 sequence (Q14168 180-250, limits assumed, looked up): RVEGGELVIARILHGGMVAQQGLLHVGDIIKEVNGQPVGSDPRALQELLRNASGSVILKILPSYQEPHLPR

T4: APBA1_2, Q02410
T4 sequence (Q02410 742-832, limits assumed, looked up): T1 sequence (Q99767 654-744, limits assumed, looked up) with K10R, K15R, A59P, Q65H, A66I, S70A, F84Y, G89A

T5: SNTA1, Q13424
T5 sequence (Q13424 82-180, limits assumed, looked up): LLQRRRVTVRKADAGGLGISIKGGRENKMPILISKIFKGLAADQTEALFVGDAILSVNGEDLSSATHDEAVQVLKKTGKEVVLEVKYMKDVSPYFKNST

T6: ARHGAP21, Q5T5U3
T6 sequence (Q5T5U3 45-169, limits assumed, looked up): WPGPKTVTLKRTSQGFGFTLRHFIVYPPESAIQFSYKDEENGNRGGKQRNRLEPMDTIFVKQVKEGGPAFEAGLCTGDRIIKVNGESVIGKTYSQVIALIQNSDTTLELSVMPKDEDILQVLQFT

T7: MPP6, Q9NZW5
T7 sequence (Q9NZW5 125-219, limits assumed, looked up): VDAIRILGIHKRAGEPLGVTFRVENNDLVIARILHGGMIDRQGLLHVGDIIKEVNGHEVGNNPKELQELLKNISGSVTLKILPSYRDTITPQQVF

T8: NHERF3_3, Q5T2W1
T8 sequence (Q5T2W1 238-333, limits assumed, looked up): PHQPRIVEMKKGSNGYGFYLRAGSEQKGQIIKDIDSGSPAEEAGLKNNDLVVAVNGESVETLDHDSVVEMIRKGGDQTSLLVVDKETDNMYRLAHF

T9: PCLO, Q9Y6V0
T9 sequence (Q9Y6V0 4491-4600, limits assumed, looked up): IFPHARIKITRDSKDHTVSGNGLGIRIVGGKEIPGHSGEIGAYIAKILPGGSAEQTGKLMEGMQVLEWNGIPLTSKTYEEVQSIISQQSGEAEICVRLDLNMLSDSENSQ

B1: PLEKHH2, Q8IVE3 (peptide)
chain: SRPTKGPTLL
B2: APBA1, Q02410 (peptide)
chain: LTAQEQPVYI
B3: BCR, P11274 (peptide)
chain: RQSILFSTEV
B4: FAT1, Q14517 (peptide)
chain: PLDSQQHTEV

Target: T1, APBA2_2, Q99767
Assay: holdup assay
Set-up: key: below the threshold = too weak to quantify, mostly under pKd 3.1 to 4
Conditions: plain residues with an end cap or a label only (N-terminal biotin on a linker: ado-ado)

Binder | pKd
B1 | below the threshold
B2 | below the threshold
B3 | below the threshold
B4 | below the threshold

Target: DLG4_1, P78352
Sequence (P78352 62-152): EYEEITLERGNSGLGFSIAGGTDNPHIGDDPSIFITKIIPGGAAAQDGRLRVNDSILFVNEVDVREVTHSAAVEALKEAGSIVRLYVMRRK
Assay: holdup assay
Set-up: key: below the threshold = too weak to quantify, mostly under pKd 3.1 to 4
Conditions: plain residues with an end cap or a label only (N-terminal biotin on a linker: ado-ado)

Binder | pKd
B1 | 3.91
B2 | below the threshold
B3 | 4.67
B4 | 4.41

Target: MAGI2_6, Q86UL8
Sequence (Q86UL8 1141-1229): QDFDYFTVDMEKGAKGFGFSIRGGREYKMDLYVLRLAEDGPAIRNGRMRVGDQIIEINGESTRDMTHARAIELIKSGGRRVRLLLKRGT
Assay: holdup assay
Set-up: key: below the threshold = too weak to quantify, mostly under pKd 3.1 to 4
Conditions: plain residues with an end cap or a label only (N-terminal biotin on a linker: ado-ado)

Binder | pKd
B1 | below the threshold
B2 | below the threshold
B3 | 4.67
B4 | 4.26

Target: FRMPD2_1, Q68DX3
Sequence (Q68DX3 770-861): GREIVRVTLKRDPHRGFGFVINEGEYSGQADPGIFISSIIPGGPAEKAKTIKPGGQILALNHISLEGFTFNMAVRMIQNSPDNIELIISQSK
Assay: holdup assay
Set-up: key: below the threshold = too weak to quantify, mostly under pKd 3.1 to 4
Conditions: plain residues with an end cap or a label only (N-terminal biotin on a linker: ado-ado)

Binder | pKd
B1 | below the threshold
B2 | below the threshold
B3 | below the threshold
B4 | below the threshold

Target: T2, GRIP1_4, Q9Y3R0
Assay: holdup assay
Set-up: key: below the threshold = too weak to quantify, mostly under pKd 3.1 to 4
Conditions: plain residues with an end cap or a label only (N-terminal biotin on a linker: ado-ado)

Binder | pKd
B1 | below the threshold
B2 | below the threshold
B3 | below the threshold
B4 | below the threshold

Target: GORASP2, Q9H8Y8
Assay: holdup assay
Set-up: key: below the threshold = too weak to quantify, mostly under pKd 3.1 to 4
Conditions: plain residues with an end cap or a label only (N-terminal biotin on a linker: ado-ado)

Binder | pKd
B1 | 3.6
B2 | 4.18
B3 | 3.82
B4 | below the threshold

Target: LIMK2, P53671
Sequence (P53671 143-248): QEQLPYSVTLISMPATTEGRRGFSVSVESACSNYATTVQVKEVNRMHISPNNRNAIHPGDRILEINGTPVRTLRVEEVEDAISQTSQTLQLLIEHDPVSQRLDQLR
Assay: holdup assay
Set-up: key: below the threshold = too weak to quantify, mostly under pKd 3.1 to 4
Conditions: plain residues with an end cap or a label only (N-terminal biotin on a linker: ado-ado)

Binder | pKd
B1 | below the threshold
B2 | below the threshold
B3 | below the threshold
B4 | below the threshold

Target: GRID2IP_1, A4D2P6
Sequence (A4D2P6 1-87): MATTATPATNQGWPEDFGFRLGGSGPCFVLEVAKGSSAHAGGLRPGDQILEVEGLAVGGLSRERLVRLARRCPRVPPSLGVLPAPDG
Assay: holdup assay
Set-up: key: below the threshold = too weak to quantify, mostly under pKd 3.1 to 4
Conditions: plain residues with an end cap or a label only (N-terminal biotin on a linker: ado-ado)

Binder | pKd
B1 | below the threshold
B2 | below the threshold
B3 | below the threshold
B4 | below the threshold

Target: GRIP2_3, Q9C0E4
Sequence (Q9C0E4 238-339): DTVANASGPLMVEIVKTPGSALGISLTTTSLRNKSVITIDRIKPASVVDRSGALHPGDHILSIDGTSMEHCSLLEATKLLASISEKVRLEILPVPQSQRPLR
Assay: holdup assay
Set-up: key: below the threshold = too weak to quantify, mostly under pKd 3.1 to 4
Conditions: plain residues with an end cap or a label only (N-terminal biotin on a linker: ado-ado)

Binder | pKd
B1 | below the threshold
B2 | below the threshold
B3 | 3.69
B4 | below the threshold

Target: FRMPD4, Q14CM0
Sequence (Q14CM0 67-160): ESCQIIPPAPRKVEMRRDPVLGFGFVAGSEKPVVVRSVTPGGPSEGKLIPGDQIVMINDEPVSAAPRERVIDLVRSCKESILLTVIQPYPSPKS
Assay: holdup assay
Set-up: key: below the threshold = too weak to quantify, mostly under pKd 3.1 to 4
Conditions: plain residues with an end cap or a label only (N-terminal biotin on a linker: ado-ado)

Binder | pKd
B1 | 3.88
B2 | below the threshold
B3 | below the threshold
B4 | below the threshold

Target: MAGI2_4, Q86UL8
Sequence (Q86UL8 772-865): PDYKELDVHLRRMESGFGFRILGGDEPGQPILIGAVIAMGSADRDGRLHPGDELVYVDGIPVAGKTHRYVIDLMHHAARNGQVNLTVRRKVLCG
Assay: holdup assay
Set-up: key: below the threshold = too weak to quantify, mostly under pKd 3.1 to 4
Conditions: plain residues with an end cap or a label only (N-terminal biotin on a linker: ado-ado)

Binder | pKd
B1 | below the threshold
B2 | below the threshold
B3 | 4.88
B4 | below the threshold

Target: T3, MPP2, Q14168
Assay: holdup assay
Set-up: key: below the threshold = too weak to quantify, mostly under pKd 3.1 to 4
Conditions: plain residues with an end cap or a label only (N-terminal biotin on a linker: ado-ado)

Binder | pKd
B1 | below the threshold
B2 | below the threshold
B3 | below the threshold
B4 | below the threshold

Target: PDLIM1, O00151
Sequence (O00151 1-87): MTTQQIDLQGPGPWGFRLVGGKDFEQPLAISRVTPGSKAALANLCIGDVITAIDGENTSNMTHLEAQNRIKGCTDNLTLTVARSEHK
Assay: holdup assay
Set-up: key: below the threshold = too weak to quantify, mostly under pKd 3.1 to 4
Conditions: plain residues with an end cap or a label only (N-terminal biotin on a linker: ado-ado)

Binder | pKd
B1 | below the threshold
B2 | below the threshold
B3 | below the threshold
B4 | below the threshold

Target: CASK, O14936
Sequence (O14936 487-570): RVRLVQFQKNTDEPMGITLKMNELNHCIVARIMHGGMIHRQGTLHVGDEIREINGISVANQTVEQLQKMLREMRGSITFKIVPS
Assay: holdup assay
Set-up: key: below the threshold = too weak to quantify, mostly under pKd 3.1 to 4
Conditions: plain residues with an end cap or a label only (N-terminal biotin on a linker: ado-ado)

Binder | pKd
B1 | below the threshold
B2 | below the threshold
B3 | below the threshold
B4 | below the threshold

Target: TJP2_1, Q9UDY2
Sequence (Q9UDY2 24-128): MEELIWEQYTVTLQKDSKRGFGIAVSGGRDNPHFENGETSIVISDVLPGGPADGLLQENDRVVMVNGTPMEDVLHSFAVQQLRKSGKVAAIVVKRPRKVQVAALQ
Assay: holdup assay
Set-up: key: below the threshold = too weak to quantify, mostly under pKd 3.1 to 4
Conditions: plain residues with an end cap or a label only (N-terminal biotin on a linker: ado-ado)

Binder | pKd
B1 | 3.57
B2 | below the threshold
B3 | 3.69
B4 | below the threshold

Target: DLG1_1, Q12959
Assay: holdup assay
Set-up: key: below the threshold = too weak to quantify, mostly under pKd 3.1 to 4
Conditions: plain residues with an end cap or a label only (N-terminal biotin on a linker: ado-ado)

Binder | pKd
B1 | 3.72
B2 | below the threshold
B3 | 4.64
B4 | 4.37

Target: MAGI3_2, Q5TCQ9
Sequence (Q5TCQ9 398-503): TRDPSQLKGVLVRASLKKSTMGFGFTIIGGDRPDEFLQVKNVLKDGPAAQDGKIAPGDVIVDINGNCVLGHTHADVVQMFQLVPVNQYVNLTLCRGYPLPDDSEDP
Assay: holdup assay
Set-up: key: below the threshold = too weak to quantify, mostly under pKd 3.1 to 4
Conditions: plain residues with an end cap or a label only (N-terminal biotin on a linker: ado-ado)

Binder | pKd
B1 | 4.4
B2 | below the threshold
B3 | 4.13
B4 | 3.71

Target: T4, APBA1_2, Q02410
Assay: holdup assay
Set-up: key: below the threshold = too weak to quantify, mostly under pKd 3.1 to 4
Conditions: plain residues with an end cap or a label only (N-terminal biotin on a linker: ado-ado)

Binder | pKd
B1 | 4.25
B2 | 4.36
B3 | 4.07
B4 | 3.7

Target: Inadl_2, Q8NI35
Sequence (Q8NI35 238-335): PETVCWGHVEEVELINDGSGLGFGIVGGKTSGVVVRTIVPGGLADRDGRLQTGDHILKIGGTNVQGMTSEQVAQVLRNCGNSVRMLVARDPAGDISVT
Assay: holdup assay
Set-up: key: below the threshold = too weak to quantify, mostly under pKd 3.1 to 4
Conditions: plain residues with an end cap or a label only (N-terminal biotin on a linker: ado-ado)

Binder | pKd
B1 | below the threshold
B2 | 3.72
B3 | below the threshold
B4 | below the threshold

Target: T5, SNTA1, Q13424
Assay: holdup assay
Set-up: key: below the threshold = too weak to quantify, mostly under pKd 3.1 to 4
Conditions: plain residues with an end cap or a label only (N-terminal biotin on a linker: ado-ado)

Binder | pKd
B1 | below the threshold
B2 | below the threshold
B3 | 4.47
B4 | 4.22

Target: DLG2_2, Q15700
Sequence (Q15700 189-283): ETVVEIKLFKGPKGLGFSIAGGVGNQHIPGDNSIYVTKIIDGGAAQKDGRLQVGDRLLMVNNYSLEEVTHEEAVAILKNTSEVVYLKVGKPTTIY
Assay: holdup assay
Set-up: key: below the threshold = too weak to quantify, mostly under pKd 3.1 to 4
Conditions: plain residues with an end cap or a label only (N-terminal biotin on a linker: ado-ado)

Binder | pKd
B1 | below the threshold
B2 | below the threshold
B3 | 4.63
B4 | 4.62

Target: T6, ARHGAP21, Q5T5U3
Assay: holdup assay
Set-up: key: below the threshold = too weak to quantify, mostly under pKd 3.1 to 4
Conditions: plain residues with an end cap or a label only (N-terminal biotin on a linker: ado-ado)

Binder | pKd
B1 | 4.02
B2 | 3.57
B3 | below the threshold
B4 | 3.85

Target: T7, MPP6, Q9NZW5
Assay: holdup assay
Set-up: key: below the threshold = too weak to quantify, mostly under pKd 3.1 to 4
Conditions: plain residues with an end cap or a label only (N-terminal biotin on a linker: ado-ado)

Binder | pKd
B1 | below the threshold
B2 | below the threshold
B3 | below the threshold
B4 | below the threshold

Target: ARHGEF12, Q9NZN5-2
Sequence (Q9NZN5 other isoform, or with tags, fused parts or gaps): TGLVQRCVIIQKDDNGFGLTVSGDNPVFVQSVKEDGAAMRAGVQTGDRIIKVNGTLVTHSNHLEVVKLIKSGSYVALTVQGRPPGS
Assay: holdup assay
Set-up: key: below the threshold = too weak to quantify, mostly under pKd 3.1 to 4
Conditions: plain residues with an end cap or a label only (N-terminal biotin on a linker: ado-ado)

Binder | pKd
B1 | 4.9
B2 | below the threshold
B3 | 5.09
B4 | 4.42

Target: T8, NHERF3_3, Q5T2W1
Assay: holdup assay
Set-up: key: below the threshold = too weak to quantify, mostly under pKd 3.1 to 4
Conditions: plain residues with an end cap or a label only (N-terminal biotin on a linker: ado-ado)

Binder | pKd
B1 | below the threshold
B2 | below the threshold
B3 | below the threshold
B4 | below the threshold

Target: T9, PCLO, Q9Y6V0
Assay: holdup assay
Set-up: key: below the threshold = too weak to quantify, mostly under pKd 3.1 to 4
Conditions: plain residues with an end cap or a label only (N-terminal biotin on a linker: ado-ado)

Binder | pKd
B1 | below the threshold
B2 | below the threshold
B3 | below the threshold
B4 | below the threshold

Target: NHERF2_2, Q15599
Sequence (Q15599 142-238): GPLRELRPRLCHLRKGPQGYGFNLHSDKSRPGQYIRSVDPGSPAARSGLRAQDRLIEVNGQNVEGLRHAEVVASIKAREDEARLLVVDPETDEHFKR
Assay: holdup assay
Set-up: key: below the threshold = too weak to quantify, mostly under pKd 3.1 to 4
Conditions: plain residues with an end cap or a label only (N-terminal biotin on a linker: ado-ado)

Binder | pKd
B1 | below the threshold
B2 | below the threshold
B3 | below the threshold
B4 | below the threshold

Target: IL16_4, Q14005
Sequence (Q14005 1229-1329): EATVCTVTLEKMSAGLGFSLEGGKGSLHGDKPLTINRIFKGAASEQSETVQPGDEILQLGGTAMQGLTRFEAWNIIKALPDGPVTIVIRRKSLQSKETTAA
Assay: holdup assay
Set-up: key: below the threshold = too weak to quantify, mostly under pKd 3.1 to 4
Conditions: plain residues with an end cap or a label only (N-terminal biotin on a linker: ado-ado)

Binder | pKd
B1 | below the threshold
B2 | 3.57
B3 | 3.54
B4 | below the threshold
